Data: publication PMC3093129 (Biochemistry, 2011)

Target: the molecule itself
Experiment: AUC

B1: Liprin-β2 coiled-coil mutant C145S (complete coiled-coil construct, residues S100 through E315) (domain or fragment, human)
chain: MEKTRSAASNETYQERLARLEGDKESLILQVSVLTDQVEAQGEKIRDLEVSLEGHQVKLNAAEEMLQQELLSRTSLETQKLDLMTEVSELKLKLVGMEKEQREQEEKQRKAEELLQELRHLKIKVEELENERNQYEWKLKATKAEVAQLQEQVALKDAEIERLHSQLSRTAALHSESHTERDQEIQRLKMGMETLLLANEDKDRRIEELTGLLNQYRKVKE
stoichiometry N: 2
